Laboratory results published in article PMC8163358.

Biological target: gramicidin S synthetase A (GrsA) (UniProt P0C062)
Assay: MST; 1 nM GrsA labelled with NT-647-NHS (RED-NHS kit), dilution series of TycB1(WT); NRPS buffer (50 mM HEPES, 100 mM NaCl, 10 mM MgCl2, 1 mM EDTA, pH 7.0) with 0.05% (v/v) Tween-20; triplicate; sigmoidal fit

Sequence of UniProt P0C062 (P0C062 whole entry): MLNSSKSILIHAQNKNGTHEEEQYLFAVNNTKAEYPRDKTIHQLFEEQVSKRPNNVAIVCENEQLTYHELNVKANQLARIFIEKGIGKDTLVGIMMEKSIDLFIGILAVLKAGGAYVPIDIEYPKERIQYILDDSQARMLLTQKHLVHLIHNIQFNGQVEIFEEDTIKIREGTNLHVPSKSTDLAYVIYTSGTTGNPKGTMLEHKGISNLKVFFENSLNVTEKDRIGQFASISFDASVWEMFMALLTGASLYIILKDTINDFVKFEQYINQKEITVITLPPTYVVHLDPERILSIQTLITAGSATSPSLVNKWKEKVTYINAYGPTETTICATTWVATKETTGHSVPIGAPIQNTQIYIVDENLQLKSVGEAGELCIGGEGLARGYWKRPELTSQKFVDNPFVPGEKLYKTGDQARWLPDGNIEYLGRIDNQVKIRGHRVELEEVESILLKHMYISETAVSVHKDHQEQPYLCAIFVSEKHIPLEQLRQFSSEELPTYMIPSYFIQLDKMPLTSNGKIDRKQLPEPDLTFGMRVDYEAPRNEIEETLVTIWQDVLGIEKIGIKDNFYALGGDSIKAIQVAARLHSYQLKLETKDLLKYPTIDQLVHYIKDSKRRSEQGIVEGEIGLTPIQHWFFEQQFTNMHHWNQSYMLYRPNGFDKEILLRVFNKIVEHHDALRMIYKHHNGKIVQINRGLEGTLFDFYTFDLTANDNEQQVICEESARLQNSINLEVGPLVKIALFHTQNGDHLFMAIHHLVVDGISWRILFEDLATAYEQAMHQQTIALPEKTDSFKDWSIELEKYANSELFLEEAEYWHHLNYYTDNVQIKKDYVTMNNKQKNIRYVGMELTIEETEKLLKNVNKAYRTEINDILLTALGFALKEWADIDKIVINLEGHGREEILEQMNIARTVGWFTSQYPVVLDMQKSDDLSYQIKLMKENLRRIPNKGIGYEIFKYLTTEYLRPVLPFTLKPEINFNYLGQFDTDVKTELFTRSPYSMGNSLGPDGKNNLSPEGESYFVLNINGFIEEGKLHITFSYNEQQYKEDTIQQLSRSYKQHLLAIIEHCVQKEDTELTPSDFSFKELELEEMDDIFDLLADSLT

Kd: 5 µM
Substance: TycB1 (wildtype) (from UniProt O30408 1-3587) (domain or fragment)
